This test addresses human RET on cells (MCF7/SRE-Luc; HEK293/hGFRα3/hRET/SRE-Luc; HEK293/hGFRα1/hRET/SRE-Luc) (human), P07949. Nature of the test: cell-based or functional assay.

B1: H4H8085P (antibody, human IgG4, V domains shown)
VH: QVQLVESGGGVVQPGRSLRLSCTASGFTFDNYGMHWVRQAPGKGLEWVAVISYDGSNTFYADSVKGRFTISRDNSKNALYLQMNSLRAEDTAVYYCAKDLEFDILIGYPFDSWGRGTLVTVSS
VL: DIQLTQSPSFLSASVGDRVTITCWASQDISRYLAWYQQKPGKAPNLLIYAASTLQSGVPSRFSGSGSGTEFTLTINSLQPEDFATYYCQQLFSYPRTFGQGTKVEIK
Molecule B1 showed a 293/hGFRα3/hRET SRE-luc % Blocking of 72%, a 293/hGFRα3/hRET/SRE-Luc IC50 of 127 nM, an MCF7/SRE-Luc % Activation of 47% and an MCF7/SRE-Luc Avg % Blocking of 0%. The molecule further showed a luciferase activity in MCF7/SRE-Luc, % of the levels observed with GDNF of 50%.

B2: H4H8087P (antibody, human IgG4, V domains shown)
VH: QVQLVESGGGVVQPGRSLRLSCAASGFSFSSYGMHWVRQAPGKGLEWVAVMWYDGSNEYYADSVKGRFIISRDNSKSTLYLEMNSLRAEDTALYYCAREDWDEGYYYGMDVWGQGTTVTVSS
VL: DIQMTQSPSSLFASVGDRVTITCRASQDIRYDLGWYQQKPGKAPKRLIYASSILESGVPSRFSGSGSGTEYTLTISTLQSEDFAIYYCLQHNSFPWTFGQGTKVEIK
With B2, the 293/hGFRα3/hRET SRE-luc % Blocking was found to be 100%; the 293/hGFRα3/hRET/SRE-Luc IC50 turned out to be 0.25 nM; the Internalization (% H4H8087P), HEK293/hGFRa1/hRET/SRE-Luc cells, 37 C is 100%; the MCF7/SRE-Luc % Activation came out at 0%. Moreover, the MCF7/SRE-Luc Avg % Blocking stood at 100% and the MCF7/SRE-luc Avg. IC50 was found to be 0.25 nM.

B3: H4H7086N (antibody, human IgG4, V domains shown)
VH: QVQLVESGGGVVQPGRSLRLSCVVSGFTFSNYGMHWVRQGPGRGLEWLALIWYDGSDKYYAESVRGRFTISRDNSKNTVYLQMNSLRAEDTAMYYCTRDRIFDYWGQGTLVTVSS
VL: AIQMTQSPSSLSASVGDRVTITCRASQDIRNDLGWYQHNPGKAPNLLIYAASTLQIGVPSRFRGSGSGTDFTLTISSLQPEDFATYYCLQDFDYPLSFGGGTKVEIR
B3 displayed an Internalization (% H4H8087P), HEK293/hGFRa1/hRET/SRE-Luc cells, 37 C of 59%.

Values taken from patent publication US20220185900A1.
